The source of these data is US20160237160A1 (Bayer, published 2016).

Experiment [1] has as its target T1, TWEAKR (TNFRSF12A, FN14), human, on tumor cell lines (human, UniProt Q9NP84 28-129). The experiment can be described thus: cell-based or functional assay.
The target of experiment [2] is T1, TWEAKR (TNFRSF12A, FN14), human, on …. The experiment can be described thus: cell-based or functional assay. The source holds these as a separate data set.
The target is the same in experiment [3]. The experiment can be described thus: cell-based or functional assay. The source holds these as a separate data set.
For experiment [4] the target is unchanged. The experiment can be described thus: FACS, A375 cells, 10 ug/ml. (Flow cytometry measures light scatter and fluorescence of single cells or particles in a stream.)
Experimental: (§1) To determine the binding characteristics of the anti-TWEAKR antibodies on mouse and human cancer cell lines, binding was tested by flow cytometry to a panel of cell lines. […] Cells were suspended at approximately 10⁵ cells/well in FACS buffer (PBS without Ca/Mg, containing 3% FCS, Biochrom). Cells were centrifuged (250 g, 5 min, 4° C.) and supernatant discarded. Cells were resuspended in dilutions of the antibodies of interest (10 μg/ml in 80 μl if not indicated otherwise) in FACS buffer, and incubated on ice for 1 h. […] After incubation for 1 h on ice cells were again washed with cold FACS buffer, resuspended in 1000 FACS buffer and analyzed by flow cytometry using a FACS-Array (BD Biosciences). Results are calculated as Geo Mean of fluorescence detected by the antibody of interest subtracted by background fluorescence as measured by detection with the secondary antibody alone. Values are scored according to the following system: Geo Mean−Geo Mean of secondary antibody alone >10: +, >100: ++, >1000: +++, 10000: ++++, close to category border in ( ).
Experiment [5] shares this target. Put plainly: FACS, HT29 cells, 10 ug/ml.
Experimental: as §1
Experiment [6] has the same target. Put plainly: FACS, WiDr cells, 10 ug/ml.
Experimental: as §1
Experiment [7] shares this target. The experiment can be described thus: FACS, 786-O cells, 10 ug/ml.
Experimental: as §1
The target is the same in experiment [8]. The experiment can be described thus: FACS, SKOV-3 cells, 10 ug/ml.
Experimental: as §1
For experiment [9] the target is unchanged. Put plainly: FACS, NCI-H322 cells, 10 ug/ml.
For experiment [10], the target named is T2, TPP-2305 (hTNFRSF12Aaa28-80) (Human, UniProt Q9NP84 28-80).
T2 construct: monomeric extracellular domain, bought; also called purified recombinant human TWEAKR protein; soluble monomeric TWEAKR
Put plainly: SPR (Biacore T100), IgG captured, TPP-2305 injected, 1:1 model. Background: SPR reads the build-up and loss of mass on a sensor chip optically.

Experiment [11] addresses T3, TPP-2614 (TweakR-ECD-34-68-hIgGFc-His-D47A) (human).
T3 construct: also called D47A TWEAKR mutein
The experiment can be described thus: ELISA, IgG coated 1 ug/ml, TWEAKR variant 250 ng/ml, anti-HIS HRP (FIG. 6C).
Experimental: Antibodies were coated (1 μg/ml), TWEAKR variant was added at 250 ng/ml, detection via anti-HIS HRP. […] Antibodies were coated (1 μg/ml), TWEAKR variant was added 250 ng/ml, detection via anti-HIS HRP.

Experiment [12] addresses T4, TPP-599 (HUMAN-TNFRSF12Aaa28-80-hIgG1-Fc) (human).
T4 construct: dimeric; also called human TWEAKR Fc; TWEAKR-Fc
Put plainly: SPR, TWEAKR-Fc immobilized, IgG injected, bivalent analyte model (avidity mode).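 Also: kd derived as the ratio of fitted dissociation to association rate constants, with sensorgrams corrected against a reference flow cell and a buffer blank before fitting.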
Experimental: (§2) Sensorgrams were generated after in-line reference cell correction followed by buffer sample subtraction. The dissociation equilibrium constant (KD) was calculated based on the ratio of association (kₒₙ₁) and dissociation rated (koff1) constants, obtained by fitting sensorgrams with a bivalent analyte model using Biavaluation Software (version 4.0).

The target in experiment [13] is T5, TPP-601 (MURINE-TNFRSF12Aaa28-80-hIgG1-Fc) (murine).
T5 construct: dimeric; also called murine TWEAKR Fc
Described as above.
Experimental: as §2

Experiment [14] addresses T6, TPP-1846 (MAC-TNFRSF12Aaa28-80-hIgG1-Fc) (macaca fascicularis).
T6 construct: bivalent antigen; also called mac fasc TWEAKR Fc
Described as above.
Experimental: as §2

The target in experiment [15] is T7, TPP-1779 (RAT-TNFRSF12Aaa28-80-hIgG1-Fc) (rat).
T7 construct: bivalent antigen; also called rat TWEAKR Fc
The description is as above.
Experimental: as §2

Experiment [16] deals with T8, TPP-1778 (PIG-TNFRSF12Aaa28-80-hIgG1-Fc) (pig).
T8 construct: bivalent antigen; also called pig TWEAKR Fc
Described as above.
Experimental: as §2

Experiment [17] concerns the target T9, TPP-1777 (DOG-TNFRSF12Aaa28-80-hIgG1-Fc) (dog).
T9 construct: bivalent antigen; also called dog TWEAKR Fc
Described as above.
Experimental: as §2

Experiment [18] has as its target T4, TPP-599 …. Put plainly: ELISA, TWEAKR-Fc coated 62 ng/ml, biotin-IgG titrated; + means IC50 1 to 150 pM.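 Also: biotinylated IgG binding to immobilized TWEAKR-Fc muteins, detected with Streptavidin-HRP and Amplex Red, IC50 derived from fitted dose-response curves of twofold serial dilutions.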
Experimental: (§3) To collect dose-response data, the different TWEAKR-Fc muteins were coated with a low concentration (62 ng/ml) in a 384-well Maxisorb ELISA plate and a serial 2fold dilution of biotinylated IgG starting with a concentration of 100 nM was used as soluble binding partner. Detection was done with Streptavidin-HRP and Amplex Red.
(§4) The dose-response data were fitted and IC50s determined.
Experiment [19] deals with TPP-1986 (hTNFRSF12Aaa28-80-T33Q-hIgG1-Fc) (human). The description is as above.
Experimental: as §3, §4
For experiment [20], the target named is TPP-1987 (hTNFRSF12Aaa28-80-S40R-hIgG1-Fc) (human). Described as above.
Experimental: as §3, §4
In experiment [21] the target is TPP-1988 (hTNFRSF12Aaa28-80-M50A-hIgG1-Fc) (human). Described as above.
Experimental: as §3, §4
Experiment [22] concerns the target TPP-1989 (hTNFRSF12Aaa28-80-H60K-hIgG1-Fc) (human). Described as above.
Experimental: as §3, §4
In experiment [23] the target is TPP-1990 (hTNFRSF12Aaa28-80-L65Q-hIgG1-Fc) (human). Described as above.
Experimental: as §3, §4
For experiment [24], the target named is T10, TPP-2202 (TWEAKR-ECD-28-80-hIgGFc-His) (human).
T10 construct: dimeric; also called TWEAKR-Fc fusion protein; full ectodomain 28-80
Put plainly: ELISA, TPP-2202 coated at 1 µg/ml, biotinylated IgG at 0.08 µg/ml (open bar) and 0.3 µg/ml (filled bar), Streptavidin-HRP, Amplex Red.
Experimental: (§5) Detection was done with Streptavidin-HRP and Amplex-Red substrate.
(§6) To analyze for binding, 1 μg/ml of the respective dimeric TWEAKR-Fc construct were coated and, 0.3 μg/ml and 0.08 μg/ml of biotinylated IgG were used as soluble binding partner. Detection was done with Streptavidin-HRP and Amplex-Red substrate.

Experiment [25] deals with T11, TPP-2203 (TWEAKR-ECD-34-68-hIgGFc-His) (human).
T11 construct: dimeric; also called TWEAKR(34-68)-Fc fusion protein; truncated ectodomain 34-68
The experiment can be described thus: ELISA, TPP-2203 coated at 1 µg/ml, biotinylated IgG at 0.08 µg/ml (open bar) and 0.3 µg/ml (filled bar), Streptavidin-HRP, Amplex Red. In general terms: ELISA stands for enzyme-linked immunosorbent assay.
Experimental: as §5, §6

For experiment [26], the target named is T12, TPP-1984 (hTNFRSF12Aaa28-68-CT-His) (human).
T12 construct: monomeric ectodomain with HIS6 tag; also called TWEAKR(28-68)-HIS; C-terminally truncated TWEAKR ectodomain
T12 chain: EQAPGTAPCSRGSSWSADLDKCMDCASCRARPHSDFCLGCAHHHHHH
Put plainly: ELISA, TPP-1984 coated at 1 µg/ml, biotinylated IgG at 0.08 µg/ml (open bar) and 0.3 µg/ml (filled bar), Streptavidin-HRP, Amplex Red.
Experimental: as §5, §6

B1: TPP-1538 (antibody, human IgG1, kappa)
heavy: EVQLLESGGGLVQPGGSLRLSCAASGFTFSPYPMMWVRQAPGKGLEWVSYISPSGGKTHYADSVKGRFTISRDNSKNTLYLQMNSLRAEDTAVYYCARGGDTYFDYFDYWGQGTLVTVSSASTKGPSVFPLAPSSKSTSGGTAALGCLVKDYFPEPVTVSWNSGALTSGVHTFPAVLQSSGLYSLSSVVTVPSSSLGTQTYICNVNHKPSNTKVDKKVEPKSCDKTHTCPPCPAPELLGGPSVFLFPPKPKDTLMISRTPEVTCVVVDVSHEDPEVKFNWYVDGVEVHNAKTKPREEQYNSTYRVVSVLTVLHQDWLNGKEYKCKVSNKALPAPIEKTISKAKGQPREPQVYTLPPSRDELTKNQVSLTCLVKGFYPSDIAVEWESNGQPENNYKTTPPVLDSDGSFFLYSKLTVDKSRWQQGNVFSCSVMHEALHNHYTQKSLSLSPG
light: AQDIQMTQSPATLSASVGDRVTITCRASQSISSYLNWYQQKPGKAPKLLIYAASSLQSGVPSRFSGSGSGTDFTLTISSLQPEDFATYYCQQSYSSPGITFGPGTKVEIKRTVAAPSVFIFPPSDEQLKSGTASVVCLLNNFYPREAKVQWKVDNALQSGNSQESVTEQDSKDSTYSLSSTLTLSKADYEKHKLYACEVTHQGLSSPVTKSFNRGEC
notes: Human IgG1
What is called koff is a measure of how fast the partners let go of each other. Higher therefore signals a short-lived complex. For orientation: kon means the rate constant with which the complex forms. A lower kon goes with slow association. Consider B1, for which the “IL-8 release from A375 cells at 100 ug/ml, % of the activation by 300 ng/ml TWEAK ligand” value in [1] was 134%. Further, the “Fold induction of Caspase 3/7, 786-O cells, 100 ug/ml” value in experiment [2] is 1.81 fold. The “Fold induction of Caspase 3/7, HT-29 cells, 100 ug/ml” value in experiment [2] was determined as 2.44 fold. Besides, the “Fold induction of Caspase 3/7, NCI-H322 cells, 100 ug/ml” value in experiment [2] was found to be 1.49 fold. Moreover, in [2], the “Fold induction of Caspase 3/7, WiDr cells, 100 ug/ml” value was 1.53 fold. Moreover, the “% Inhibition of proliferation, 786-O cells, 96h, 100 ug/ml” value in experiment [3] came to 75%. For the same molecule, the “% Inhibition of proliferation, A253 cells, 72h, 100 ug/ml” value in experiment [3] is > 100%. Moreover, in [3], the “% Inhibition of proliferation, HT-29 cells, 24h, 100 ug/ml” value is 97%. The “% Inhibition of proliferation, WiDr cells, 96h, 100 ug/ml” value in [3] is 55%. For the same molecule, the “GeoMean of Fluorescence minus GeoMean with the secondary antibody only” value was determined as 229 in experiment [4]; 634 in [5]; 1190 in experiment [6]; 17500 in experiment [7]; 1630 in experiment [8]; 98 in experiment [9]. Besides, the Kd was determined as 27.6 nM in experiment [10]; 15.4 nM in experiment [12]; 4.7 nM in experiment [13]; 21.1 nM in experiment [14]; 20.4 nM in [15]; 22.7 nM in experiment [16]. In experiment [17], this molecule registered a Kd of 25 nM. For the same molecule, the off-rate constant (koff) in [10] worked out at 0.11 s⁻¹. For the same molecule, the kon in experiment [10] came out at 4.2e+06 M⁻¹ s⁻¹. For the same molecule, the “% binding normalized by wt binding signal” value in [11] is < 5%.

B2: TPP-2077 (antibody, human IgG1, kappa)
heavy: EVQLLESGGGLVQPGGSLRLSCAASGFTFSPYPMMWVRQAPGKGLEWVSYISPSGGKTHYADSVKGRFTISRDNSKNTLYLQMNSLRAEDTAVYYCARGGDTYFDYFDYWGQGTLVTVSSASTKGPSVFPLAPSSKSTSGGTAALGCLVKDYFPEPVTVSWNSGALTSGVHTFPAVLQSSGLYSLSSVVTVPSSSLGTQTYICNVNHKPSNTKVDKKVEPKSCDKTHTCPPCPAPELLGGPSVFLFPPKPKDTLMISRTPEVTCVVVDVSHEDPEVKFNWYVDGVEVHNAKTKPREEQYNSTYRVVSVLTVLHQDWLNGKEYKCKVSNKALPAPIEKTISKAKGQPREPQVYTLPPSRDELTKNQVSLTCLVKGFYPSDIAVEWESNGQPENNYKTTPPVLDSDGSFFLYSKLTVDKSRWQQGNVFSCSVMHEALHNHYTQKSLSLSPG
light: DIQMTQSPATLSASVGDRVTITCRASQSISSYLNWYQQKPGKAPKLLIYAASSLQSGVPSRFSGSGSGTDFTLTISSLQPEDFATYYCQQSYSSPGITFGPGTKVEIKRTVAAPSVFIFPPSDEQLKSGTASVVCLLNNFYPREAKVQWKVDNALQSGNSQESVTEQDSKDSTYSLSSTLTLSKADYEKHKLYACEVTHQGLSSPVTKSFNRGEC
notes: Human IgG1
With B2, the Kd in experiment [10] is 28.9 nM; in experiment [12] it was 10.3 nM; in experiment [13], 4.2 nM; in experiment [14], 16.8 nM; in experiment [15], 21.2 nM; in experiment [16], 22.4 nM. For the same molecule, in experiment [17], the Kd was found to be 24.5 nM. This molecule showed a koff in [10] of 0.086 s⁻¹. In addition, the kon in experiment [10] was found to be 3e+06 M⁻¹ s⁻¹. Also, the “% binding normalized by wt binding signal” value in experiment [11] is < 5%.

B3: 136.1(TPP-2194) (antibody, mouse IgG2a, kappa, V domains shown)
VH: EVKLEESGGGLVQPGGSMKLSCVASGFTFNNYWMSWVRQSPEKGLEWLAEIRLKSDNYATHYAESVKGKFTISRDDSKSRLYLQMNNLRAENTGIYYCTGGFADYFDYWGQGTTLTVSS
VL: DIVLTQSPASLTVSLGQRATISCRASQSVSTSSYSYMQWYQQRPGQPPKLLIKYATNLDSGVPARFSGSGSGTDFTLNIHPVEEEDAATYYCQHSWEIPYTFGGGTKLEIKR
notes: Murine IgG2a; variable domains from WO2009/020933 with constant region added
In the case of B3, in experiment [1], the “IL-8 release from A375 cells at 100 ug/ml, % of the activation by 300 ng/ml TWEAK ligand” value amounted to 93%. For the same molecule, the “Fold induction of Caspase 3/7, HT-29 cells, 100 ug/ml” value in [2] was 1.81 fold. This molecule gave a Kd in experiment [10] of 0.8 nM. Besides, in [10], the off-rate (koff) was determined as 0.0324 s⁻¹. This molecule returned an on-rate constant (kon) in [10] of 3.84e+07 M⁻¹ s⁻¹. Also, the binding result in experiment [18], in experiment [19], in [20], in [21], in experiment [22] and in experiment [23] was “binds” in each case. Moreover, the binding result in [24], in experiment [25] and in experiment [26] was “binds” throughout.
